The results in this text go back to patent publication US20160185837A1, “GIP AND GLP-1 RECEPTOR DUAL-AGONISTS FOR THE TREATMENT OF DIABETES” (Medimmune Limited, priority 2013, published 2016).

Test in all cases: cell-based or functional assay
The target of one experiment is rat GLP-1 receptor (rat) (UniProt P32301).
Experiment [1] addresses human glucagon receptor (human) (UniProt P47871).
Experiment [2] deals with mouse GLP-1 receptor (mouse) (UniProt O35659).
In experiment [3] the target is T1, human GIP receptor (human) (UniProt P48546).
T1 sequence (looked up): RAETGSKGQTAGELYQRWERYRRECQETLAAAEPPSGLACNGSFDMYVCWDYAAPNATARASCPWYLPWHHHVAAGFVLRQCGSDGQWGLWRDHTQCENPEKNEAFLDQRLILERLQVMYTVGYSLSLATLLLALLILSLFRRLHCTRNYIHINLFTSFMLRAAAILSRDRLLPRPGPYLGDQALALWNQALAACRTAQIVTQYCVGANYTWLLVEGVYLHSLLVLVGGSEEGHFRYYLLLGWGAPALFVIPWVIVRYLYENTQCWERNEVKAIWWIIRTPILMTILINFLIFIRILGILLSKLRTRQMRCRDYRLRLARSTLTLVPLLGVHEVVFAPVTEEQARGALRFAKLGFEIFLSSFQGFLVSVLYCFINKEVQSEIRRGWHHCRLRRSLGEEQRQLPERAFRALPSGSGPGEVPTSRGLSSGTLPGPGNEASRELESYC

Experiment [4] concerns the target human GLP-1 receptor (human) (UniProt P43220).
In experiment [5] the target is T2, mouse GIP receptor (mouse) (UniProt Q0P543).
T2 sequence (looked up): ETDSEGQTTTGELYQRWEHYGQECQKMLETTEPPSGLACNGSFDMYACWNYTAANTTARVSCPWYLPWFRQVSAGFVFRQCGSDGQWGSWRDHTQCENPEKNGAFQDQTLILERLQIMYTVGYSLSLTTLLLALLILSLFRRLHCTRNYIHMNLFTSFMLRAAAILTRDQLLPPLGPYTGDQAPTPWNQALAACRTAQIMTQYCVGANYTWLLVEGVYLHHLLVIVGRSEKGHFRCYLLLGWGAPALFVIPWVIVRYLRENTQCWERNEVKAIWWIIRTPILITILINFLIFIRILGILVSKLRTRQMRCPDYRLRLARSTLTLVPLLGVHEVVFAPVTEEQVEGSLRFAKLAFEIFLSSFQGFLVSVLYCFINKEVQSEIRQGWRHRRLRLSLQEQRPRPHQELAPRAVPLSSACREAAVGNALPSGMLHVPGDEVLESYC

In a further experiment the target is T3, rat GIP receptor (rat) (UniProt P43219).
T3 sequence (looked up): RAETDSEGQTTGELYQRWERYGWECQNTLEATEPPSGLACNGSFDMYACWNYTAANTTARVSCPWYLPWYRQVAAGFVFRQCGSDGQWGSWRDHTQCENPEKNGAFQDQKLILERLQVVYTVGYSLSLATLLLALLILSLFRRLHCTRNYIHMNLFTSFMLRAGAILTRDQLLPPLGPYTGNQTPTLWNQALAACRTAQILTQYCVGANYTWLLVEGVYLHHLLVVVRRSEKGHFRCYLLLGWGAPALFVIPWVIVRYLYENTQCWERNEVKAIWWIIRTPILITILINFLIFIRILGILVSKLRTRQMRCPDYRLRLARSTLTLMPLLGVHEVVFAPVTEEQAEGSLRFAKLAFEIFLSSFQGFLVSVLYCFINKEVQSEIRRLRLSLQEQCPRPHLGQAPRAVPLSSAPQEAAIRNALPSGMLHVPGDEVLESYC

human GLP-1 receptor (human), sequence (P43220 24-463): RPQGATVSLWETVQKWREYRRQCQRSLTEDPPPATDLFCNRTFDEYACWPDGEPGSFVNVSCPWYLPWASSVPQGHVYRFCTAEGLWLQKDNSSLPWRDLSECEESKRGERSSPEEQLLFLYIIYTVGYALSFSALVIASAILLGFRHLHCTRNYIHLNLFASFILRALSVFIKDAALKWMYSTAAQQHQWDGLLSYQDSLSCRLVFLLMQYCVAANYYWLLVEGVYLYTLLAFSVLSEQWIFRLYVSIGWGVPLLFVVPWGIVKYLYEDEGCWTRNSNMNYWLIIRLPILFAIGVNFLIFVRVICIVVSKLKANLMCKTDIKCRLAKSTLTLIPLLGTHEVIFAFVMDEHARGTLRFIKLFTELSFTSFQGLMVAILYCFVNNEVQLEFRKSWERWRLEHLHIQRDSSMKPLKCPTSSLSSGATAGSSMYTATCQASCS
mouse GLP-1 receptor (mouse), sequence (O35659 22-463): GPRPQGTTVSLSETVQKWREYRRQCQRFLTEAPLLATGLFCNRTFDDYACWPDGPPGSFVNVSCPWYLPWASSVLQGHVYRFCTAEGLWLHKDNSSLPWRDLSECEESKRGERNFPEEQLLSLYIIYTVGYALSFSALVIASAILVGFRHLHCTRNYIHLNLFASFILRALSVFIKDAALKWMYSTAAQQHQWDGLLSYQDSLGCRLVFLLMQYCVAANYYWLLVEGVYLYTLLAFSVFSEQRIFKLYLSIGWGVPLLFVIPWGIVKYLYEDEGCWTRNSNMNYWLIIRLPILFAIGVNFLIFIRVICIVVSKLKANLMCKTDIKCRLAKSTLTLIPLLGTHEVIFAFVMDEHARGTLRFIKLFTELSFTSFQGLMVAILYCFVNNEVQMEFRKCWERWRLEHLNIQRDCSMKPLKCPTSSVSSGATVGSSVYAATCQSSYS
rat GLP-1 receptor (rat), sequence (P32301 22-463): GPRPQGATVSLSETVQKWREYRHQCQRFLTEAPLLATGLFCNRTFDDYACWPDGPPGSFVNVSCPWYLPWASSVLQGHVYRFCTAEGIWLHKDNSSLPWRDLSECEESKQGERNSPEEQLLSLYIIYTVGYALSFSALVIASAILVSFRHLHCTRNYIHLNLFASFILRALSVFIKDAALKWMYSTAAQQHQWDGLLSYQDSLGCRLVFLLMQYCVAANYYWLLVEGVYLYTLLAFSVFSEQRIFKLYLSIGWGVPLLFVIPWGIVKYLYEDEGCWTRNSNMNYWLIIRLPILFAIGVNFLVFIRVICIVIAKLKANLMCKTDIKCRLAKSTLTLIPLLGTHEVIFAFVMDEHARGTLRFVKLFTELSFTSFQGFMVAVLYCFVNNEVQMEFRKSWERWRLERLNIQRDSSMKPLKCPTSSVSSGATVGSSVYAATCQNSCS
human glucagon receptor (human), sequence (P47871 26-477): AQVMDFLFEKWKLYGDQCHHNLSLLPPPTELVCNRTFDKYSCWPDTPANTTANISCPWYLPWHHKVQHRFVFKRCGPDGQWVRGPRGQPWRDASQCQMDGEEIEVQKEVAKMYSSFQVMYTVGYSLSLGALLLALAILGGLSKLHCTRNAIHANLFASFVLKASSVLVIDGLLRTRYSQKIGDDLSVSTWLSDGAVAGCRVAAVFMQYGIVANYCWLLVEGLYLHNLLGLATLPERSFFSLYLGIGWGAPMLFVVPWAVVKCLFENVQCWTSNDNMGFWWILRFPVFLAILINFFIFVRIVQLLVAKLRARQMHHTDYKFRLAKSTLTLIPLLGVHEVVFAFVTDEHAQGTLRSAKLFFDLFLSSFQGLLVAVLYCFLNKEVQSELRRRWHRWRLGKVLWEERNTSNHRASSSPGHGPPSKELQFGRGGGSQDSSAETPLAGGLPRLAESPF

B1: IP346 (Fc fusion)
chain: YSEGTFTSDYSKLLERQAIDEFIAFLLKGGGGGGGSGGGGSGGGGSGGGGSGGGGSGGGGSA
For the molecule B1, the cAMP EC50 with rat GLP-1 receptor (rat) amounted to 0.017 nM; in experiment [1], 180 nM; in experiment [2], 0.29 nM; in experiment [3], 0.011 nM; in experiment [4] it was 0.08 nM; in experiment [5] it was 0.16 nM. For the same molecule, the cAMP EC50 with rat GIP receptor (rat) turned out to be 0.01 nM. Moreover, the cAMP EC50, hGIPr (C3) line in experiment [3] was found to be 0.16 nM.

B2: IP350 (Fc fusion)
chain: YSEGTFTSDYSKLLERQAIDEFIAGLLKGGGGGGGSGGGGSGGGGSGGGGSGGGGSGGGGSA
Turning to B2, the cAMP EC50 is 0.21 nM with rat GLP-1 receptor (rat); above 1360 nM in experiment [1]; 2.7 nM in experiment [2]; 0.013 nM in experiment [3]; 0.86 nM in experiment [4]; 1.3 nM in experiment [5]. The cAMP EC50 with rat GIP receptor (rat) is 0.024 nM.

B3: IP352 (Fc fusion)
chain: YSEGTFTSDYSKLLERQAIDEFIAMLLKGEGGGGGSGGGGSGGGGSGGGGSGGGGSGGGGSA
Take B3: the cAMP EC50 with rat GLP-1 receptor (rat) stood at 0.0076 nM; in experiment [1] it was 620 nM; in experiment [2], 3.6 nM; in experiment [3] it was 0.0069 nM; in experiment [4] it was 0.13 nM; in experiment [5], 0.52 nM. Also, the cAMP EC50 in the experiment with rat GIP receptor (rat) stood at 0.0089 nM.

B4: IP348 (Fc fusion)
chain: YSEGTFTSDYSKLLERQAIDEFIASLLKGGGGGGGSGGGGSGGGGSGGGGSGGGGSGGGGSA
Take B4: the cAMP EC50 with rat GLP-1 receptor (rat) is 0.037 nM; in experiment [1] it was above 907 nM; in experiment [2], 0.89 nM; in experiment [3] it was 0.011 nM; in experiment [4], 0.29 nM; in experiment [5], 1.4 nM. The molecule also showed a cAMP EC50 with rat GIP receptor (rat) of 0.024 nM.

B5: IP369 (Fc fusion)
chain: YSEGTFTSDYSKLLERQAIDEFIAHLLKGGGGGGGSGGGGSGGGGSGGGGSGGGGSGGGGSA
B5: the cAMP EC50 with rat GLP-1 receptor (rat) was 0.023 nM; in experiment [1], 710 nM; in experiment [2], 0.27 nM; in experiment [3], 0.0089 nM; in experiment [4], 0.071 nM; in experiment [5] it was 0.68 nM. Also, the cAMP EC50 with rat GIP receptor (rat) was found to be 0.02 nM.

B6: IP349 (Fc fusion)
chain: YSEGTFTSDYSKLLERQAIDEFIANLLKGGGGGGGSGGGGSGGGGSGGGGSGGGGSGGGGSA
For the molecule B6, the cAMP EC50 with rat GLP-1 receptor (rat) is 0.059 nM; in experiment [1], 1200 nM; in experiment [2], 0.86 nM; in experiment [3], 0.0079 nM; in experiment [4], 0.16 nM; in experiment [5], 0.55 nM. In the experiment with rat GIP receptor (rat), the cAMP EC50 came to 0.014 nM.

B7: IP347 (Fc fusion)
chain: YSEGTFTSDYSKLLERQAIDEFIAILLKGGGGGGGSGGGGSGGGGSGGGGSGGGGSGGGGSA
With B7, the cAMP EC50 is 0.087 nM with rat GLP-1 receptor (rat); above 1490 nM in experiment [1]; 2.5 nM in experiment [2]; 0.013 nM in experiment [3]; 0.75 nM in experiment [4]; 0.85 nM in experiment [5]. This molecule yielded a cAMP EC50 with rat GIP receptor (rat) of 0.024 nM.

B8: IP364 (Fc fusion)
chain: YSEGTFTSDFSKLLERQAIDEFIAWLLKGGAAAGGSGSTASSGSGSATGGGGAATHTCPPC
Consider B8, for which the cAMP EC50 came out at 0.058 nM with rat GLP-1 receptor (rat); 610 nM in experiment [1]; 0.69 nM in experiment [2]; 0.0085 nM in experiment [3]; 0.18 nM in experiment [4]; 0.5 nM in experiment [5]. The cAMP EC50 with rat GIP receptor (rat) worked out at 0.02 nM.

B9: IP373 (Fc fusion)
chain: YSEGTHTSDFSKLLERQAIDEFIAWLLKGGAAAGGSGSTASSGSGSATGGGGAATHTCPPC
As to B9, the cAMP EC50 with rat GLP-1 receptor (rat) is 0.9 nM; in experiment [1], above 6790 nM; in experiment [2], 9.2 nM; in experiment [3], 0.0054 nM; in experiment [4], 0.72 nM; in experiment [5], 3.2 nM. The molecule further gave a cAMP EC50 in the experiment with rat GIP receptor (rat) of 0.035 nM.

B10: IP375 (Fc fusion)
chain: YSEGTHTSLFSKLLERQAIDEFIAWLLKGGAAAGGSGSTASSGSGSATGGGGAATHTCPPC
With B10, the cAMP EC50 with rat GLP-1 receptor (rat) was 3.9 nM; in experiment [1] it was above 11700 nM; in experiment [2], 49 nM; in experiment [3] it was 0.078 nM; in experiment [4], 4 nM; in experiment [5] it was 0.65 nM. The molecule also had a cAMP EC50 in the experiment with rat GIP receptor (rat) of 0.07 nM.

B11: IP394 (Fc fusion)
chain: YSEGMHTSDLSKLLERQAIDEFIAWLLKGGAAAGGSGSTASSGSGSATGGGGAATHTCPPC
Regarding B11, the cAMP EC50 in the experiment with rat GLP-1 receptor (rat) is 0.23 nM; in experiment [1], above 17600 nM; in experiment [2], 10 nM; in experiment [3] it was 0.0095 nM; in experiment [4], 0.54 nM; in experiment [5], 10 nM. Moreover, the cAMP EC50 with rat GIP receptor (rat) worked out at 0.06 nM.

B12: IP367 (Fc fusion)
chain: YSEGTFTSDYRILKERQAIDEFIAWLLKGGAAAGGSGSTASSGSGSATGGGGAATHTCPPC
For the molecule B12, the cAMP EC50 with rat GLP-1 receptor (rat) is 8 nM; in experiment [1], above 1300 nM; in experiment [2], 390 nM; in experiment [3], 0.057 nM; in experiment [4], 4.4 nM; in experiment [5], 0.031 nM. The same molecule showed a cAMP EC50 with rat GIP receptor (rat) of 0.0099 nM. In experiment [3], this molecule returned a cAMP EC50, hGIPr (C3) line of 13 nM.

B13: IP366 (Fc fusion)
chain: YSEGTFTSDYRMLKERQAIDEFIAWLLKGGAAAGGSGSTASSGSGSATGGGGAATHTCPPC
On to B13, for which the cAMP EC50 is 14 nM in the experiment with rat GLP-1 receptor (rat); above 10200 nM in experiment [1]; 100 nM in experiment [2]; 0.14 nM in experiment [3]; 6.1 nM in experiment [4]; 0.056 nM in experiment [5]. Further, the cAMP EC50 in the experiment with rat GIP receptor (rat) was 0.016 nM.

B14: IP368 (Fc fusion)
chain: YSEGTFTSDYRQAIDRQAIDEFIAWLLKGGGGGGGSGGGGSGGGGSGGGGSACPPC
Turning to B14, the cAMP EC50 was 370 nM with rat GLP-1 receptor (rat); above 4860 nM in experiment [1]; above 4860 nM in experiment [2]; 0.2 nM in experiment [3]; 230 nM in experiment [4]; 1.3 nM in experiment [5]. The molecule further gave a cAMP EC50 in the experiment with rat GIP receptor (rat) of 0.22 nM.

B15: IP396 (Fc fusion)
chain: YSEGTFTSDYSKLLERQAIDEFIAWLLKGGGGGGGSGGGGSGGGGSGGGGSACPPC
For the molecule B15, the cAMP EC50 with rat GLP-1 receptor (rat) was determined as 0.057 nM; in experiment [1], 330 nM; in experiment [2], 1.2 nM; in experiment [3], 0.0093 nM; in experiment [4] it was 0.11 nM; in experiment [5], 0.28 nM. This molecule gave a cAMP EC50 with rat GIP receptor (rat) of 0.19 nM. Also, the cAMP EC50, Batch 2 came out at 0.01 nM in the experiment with rat GLP-1 receptor (rat); 250 nM in experiment [1]; 2.5 nM in experiment [2]; 0.11 nM in experiment [4]; 0.78 nM in experiment [5]; 0.014 nM with rat GIP receptor (rat).

B16: IP385 (Fc fusion)
chain: YSEGTFTSDYSIYLDRQAIDEFIAWLLKGGGGGGGSGGGGSGGGGSGGGGSACPPC
As for B16, the cAMP EC50 was 0.16 nM in the experiment with rat GLP-1 receptor (rat); above 1560 nM in experiment [1]; 30 nM in experiment [2]; 0.012 nM in experiment [3]; 0.47 nM in experiment [4]; 18 nM in experiment [5]. In the experiment with rat GIP receptor (rat), this molecule had a cAMP EC50 of 1.1 nM.
